Test results reported in the nanobody polyreactivity screen of Harvey et al. (2022).

Assay: yeast display, Sf9 membrane polyspecificity reagent, FACS + sequencing; frameworks hold sequencing errors
In short: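 A synthetic nanobody library was expressed on Saccharomyces cerevisiae BJ5465 by galactose induction for 36–48 hours. The library was stained for 1 hour at 4 °C with 10% biotinylated, detergent-solubilized Sf9 membrane reagent and enriched with streptavidin microbeads before FACS. Low and high (top ~1%) gates were set on anti-HA fluorescence for expression and streptavidin fluorescence for reagent binding, and each polyreactivity label reflects the gate of origin.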

| Sequence | polyreactivity (PSR sort gate) |
| --- | --- |
| QVQLVESGGGLVQAGGSLRLSCGASGSTFAINAMGWYRQAPGKERELVAAINWSGTTTYYADSVKGRFTISRDNAKNTVYLQMNSLKPEDTAVYYCNARYYVLRGYDYWGQGTQVTVSS | low polyreactivity |
| QVQLVESGGGLVQAGGSLRLSCGASGSTFNWYTMGWYRQAPGKERELVDAISMNGGRTYYADSVKWRFTISRDKAKNTVYLQMNSLKPEDTAVYYCAAQISFYFAQYNLARFRGYYWGQGTQVTVSS | high polyreactivity |
| QVQLVESGGGLVQAGGSLRLSCGASGSTFPTYAMGWYRQAPGKERELVAVITSSGGRTYYADSVKGRFTISRDNAKNTVYLQMNSLKPEDTAVYYCAKGSGTIYNLYDYWGQGTQVTVSS | high polyreactivity |
| QVQLVESGGGLVQAGGSLRLSCGATGTTFYYYAMGWYRQAPGKERELVPGINTSGGNTYYADSVKGRFTISRDNAKNTVYLQMNSLKPEDTAVYYCAVEGGSLHYAWYLWGYRSGGEYWGQGTQVTVSS | high polyreactivity |
| QVQLVESGGGLVQAGGSLRLSCPASGFIINVYVMGWYRQAPGKERELVAAISGGGSTYYADSVKGRFTISRDNAKNTVSLQMNSLKPEDTAVYYCAAVYYYQNEGYDFWGQGTQVTVSS | low polyreactivity |
| QVQLVESGGGLVQAGGSLRLSCPASGFTFSYYVMGWYRQSPGKERELVAAISSGGRTYYADSVKGRFTISRDNAKNTVYFQMNSLKPEDTAVYYCAAVRYSNEDDYWGQGTQVTVSS | high polyreactivity |
| QVQLVESGGGLVQAGGSLRLSCPASGHIFDYNALGWYRQAPGKERELVAAITSGGTTTYADSVKGRFTISRDNAKHTVYLQMNSLKPEDTAVYYCARKRYFGGWSRYGYGYWGQGTQVTVSS | high polyreactivity |
| QVQLVESGGGLVQAGGSLRLSCPASGIIFHPYAMGWYRQAPGKERQLVAVITWPGDSTYYADSVKGRFTISRDNAKNTVYVQMNSLKPEDTAVYYCNVEAWGTSGELPYDYWGQGTQVTVSS | low polyreactivity |
| QVQLVESGGGLVQAGGSLRLSCPASGNIFWWNARGWYRQAPGKERELVAAITSDSTTYYADSVKGRFTISRDNAKNTVYLQMNSLKPEDTAVYYCAAYSYGGQGVDYGYWGQGTQVTVSS | low polyreactivity |
| QVQLVESGGGLVQAGGSLRLSCPASGRIFTSYAMGWYRQEPGKERELVAAINRGGSTYYADSVKGRFTISRDNAKNTVYLQMNSLKPEDTAVYYCNASQPYNPEFDYWRQGTQVTVSS | low polyreactivity |
| QVQLVESGGGLVQAGGSLRLSCPASGRIFVRNAMGWYRQAPGKERELVAAITTSGGRTYYADSVKGRFTISRDLAKNPVYLQMNSLKPEDTAVYYCAAETRYRNFPYYYWGQCTQVTVSS | high polyreactivity |
| QVQLVESGGGLVQAGGSLRLSCPASGRILYLNVLGWYRQEPGKERELVASITVSGGITYYADSVKGRFTISRDNAKNTVYLQMNSLKPEDTAVYYCAVDAYPPFFYFTSVWFSYDYWGQGTQVTVSS | low polyreactivity |
| QVQLVESGGGLVQAGGSLRLSCPASGRTFKRYAMGWYRQEPGKEMELVASISWRGGSTYYADSVKGRFTISRDNAKNTVYLQMNSLKPEDTAVYYCAAEGPGNVYKLDYWGQGTQVTVSS | low polyreactivity |
| QVQLVESGGGLVQAGGSLRLSCPASGRTFYLYAMGWYRQAPGKVRELVARISGGGGRTYYADSVKGRFTISRDNAKNTVYLQMNSLKPEDSAVYYCNAQSPRGFTTPRQVYPLNGYWGQGTQVTVSS | high polyreactivity |
| QVQLVESGGGLVQAGGSLRLSCPASGSIFGWYPMAWYRQAPGKERELVAAITFYSVNTYYQDSVKGRFTISRDNAKNNVYLQMNSLKPEDTAVYYCSARGATVVSRGKLYYWGQGTQVSVSS | low polyreactivity |
| QVQLVESGGGLVQAGGSLRLSCPASGSIFNSYAMGWYRQAPGKERELVAAISSGGSTNYADSVKGRFTISRDNAKNTVYLQMNSLKPEDTAVYYCAKGSRKSGYKYYHGRVWFGYWGQGTQVTVSS | high polyreactivity |

| Sequence | polyreactivity (PSR sort gate) |
| --- | --- |
| QVQLVESGGGLVQAGGSLRLSCPASGSIFYFYGMGWYRQAPGKEREFVAAISLYGGSTYYADSVKGRFTISRDNAKNTVYFQMNSLKPEDTAVYYCAARAWSYYHGKEDYWGQGTQVTVSS | high polyreactivity |
| QVQLVESGGGLVQAGGSLRLSCPASGSIVGYYVMGWYRQAPGKERELVAAISWSSGSTYYADSVKGRFTISRDNAKNTVYLQKNSLKPEDTAVYYCNASNVYFWFVTLEFDYWGQGTQVTVSS | low polyreactivity |
| QVQLVESGGGLVQAGGSLRLSCPASGSSSVYNAMGWYRQAPGKERELVAAISWSGGRTSYADSVKGRFTISRDIAKNTVYLQMNSLKPEDTAVYFCAAHTVYSPPRVAGPGYDYWGQGTQVTVSS | low polyreactivity |
| QVQLVESGGGLVQAGGSLRLSCPASGSTFPYYAMGWYRQAPGKERELVARINWGGSSTYYADSVKGRFTISRDNAKNTVYLQMNSLKPEDTAVYYCARYSSRWSLMDYWGQGTQVTVSS | high polyreactivity |
| QVQLVESGGGLVQAGGSLRLSCPASGSTFQYYHMGWYRQEPGKERELVASITGSGDSTYYADSVKGRFTISRDNAKNTVYLQMNSLNPEDTAVYYCAAQITWSGYYDYWGQGTQVTVSS | low polyreactivity |
| QVQLVESGGGLVQAGGSLRLSCPASGSTFRSNVMGWYRQAPGKERELVAAITSSGGSTYYADSVKGRFTISRDNAKNTVYLQMNSLKPEDTAVYYCAAVGYGWDPYKRLVRHSYDSWGQGTQVTVSS | low polyreactivity |
| QVQLVESGGGLVQAGGSLRLSCPASGSTFRYYAMGWYRPAPGKERELVAGISSSGGSTYYADSVKGRFTISRDNAKNTVYLQMNSLKPEDTAVYYCNAARGTSRSWAVFADYDYWGQGSQVTVSS | high polyreactivity |
| QVQLVESGGGLVQAGGSLRLSCPASGSTFYGYVMGGYRQAPGKERELVAAISGSTYYADSVKGRFTISRDNAKNTVYLQMNSLKPEDTAVYYCNADDYRSYGGDSWGQGTQVTVSS | low polyreactivity |
| QVQLVESGGGLVQAGGSLRLSCPASGYILHKYAMGSYRQAPGKERELVATISGGGGSTYYADSVKGRFTISRDNAKNTVYLQMNSLKPEDTAVYYCAIEYPWLPRSYEYGGQGTQVTVSS | low polyreactivity |
| QVQLVESGGGLVQAGGSLRLSCPDSVFTFGATVMGWYRQAPGKEREFVAGITWSGDSTYYADSVKGRFTISRDNAKNTVYFQMNSLKPEDTAVYYCAADVYDGAYILDYDYWGQGTQVTVSS | low polyreactivity |
| QVQLVESGGGLVQAGGSLRLSCPDSVRIFYYNTMGWYRQAPGKERQLVAAISAGGGRTYYADSVKGRFTISRDNAKNTVYFQMNRLKPEDTAVYYCAARKRAQQGTRDHDYWGQGSQVTVSS | high polyreactivity |
| QVQLVESGGGLVQAGGSLRLSCPSSGFTFSAYAMGWYRQAPGKERELVAAISTRGGSTRYADSVKGRFTISRDNAKNTVNVQMNSLTPDDTAVYYCAADTRSFYRYDYWGQGTQVTVSS | high polyreactivity |
| QVQLVESGGGLVQAGGSLRLSCSACGSIFFYYAMGWYRQAPGKERELVAAITFTGGSTYYADSVKGRFTISRDNAKNTVYLRMNSLKPEDTAVYYCAADWYYGDEYEYWGQGTQVTVSS | high polyreactivity |
| QVQLVESGGGLVQAGGSLRLSCSASGFIFRFYGMGWYRQAPGKERELVASIRRSGGSTYYADSVKGRFTISRDNAKNSVYLQMNSLKPEDTAVYDCAARWYVYVHFERYYWGQGTQVTVSS | high polyreactivity |
| QVQLVESGGGLVQAGGSLRLSCSASGFIFYLYTMGWYRQAPGKERELVAAITKSGTRTYYADSVKGRFTISRDNAKNTVYLQMNSLKPEDTAVYYCAAEWGSSYRWGMDYWGQGTQVTVSS | high polyreactivity |
